Measurements taken from patent publication US20230052680A1.
Blank lines part the entries; values can stand above or below the binder they belong to.

Legend:
[1] = target: recombinant human FGFR2b-Fc (murine Fc) (human) (UniProt P21802); experiment: ELISA, plate coated with 0.1 ug/ml human FGFR2b-Fc, anti-human IgG HRP detection
[2] = target: human FGFR2b (beta)-Fc (human) (UniProt P21802); experiment: surface plasmon resonance (Biacore T200), hFGFR2b-Fc amine-coupled to a CM5 chip, antibody injected
[3] = target: human FGFR2b on cells (human) (UniProt P21802); experiment: flow cytometry on KATOIII cells; sample name as printed 'KATOIII_36C 01nM_023.fcs' (no decimal point printed)
[4] = target: human FGFR2b on cells (human) (UniProt P21802); experiment: flow cytometry on KATOIII cells; sample name as printed 'KATOIII_36C 002 nM_024.fcs' (no decimal point printed)
[5] = target: human FGFR2b on cells (human) (UniProt P21802); experiment: flow cytometry on KATOIII cells; sample name as printed 'KATOIII_36C 05nM_022.fcs' (no decimal point printed)
[6] = target: human FGFR2b on cells (human) (UniProt P21802); experiment: flow cytometry on KATOIII cells; sample name as printed 'KATOIII_36C 00009nM_026.fcs' (no decimal point printed)
[7] = target: human FGFR2b on cells (human) (UniProt P21802); experiment: flow cytometry on KATOIII cells; sample name as printed 'KATOIII_36C 0004nM_025.fcs' (no decimal point printed)
[8] = target: human FGFR2b on cells (human) (UniProt P21802); experiment: flow cytometry on FGFR2b expressing KATOIII cells
[9] = target: human FGFR2b (beta)-Fc (human) (UniProt P21802); experiment: SPR (Biacore T200); hFGFR2b-Fc amine-coupled to CM5 chip, antibody injected at 0-200 nM
[10] = target: human FGFR2b (beta)-Fc (human) (UniProt P21802); experiment: ELISA, plate coated with HuFGFR2b

EC50 (read off the curve) [1]: 0.3 nM | Kd [2]: 0.189 nM | koff [2]: 2.44e-05 s⁻¹ | kon [2]: 129000 M⁻¹ s⁻¹ | Mean : FITC-A [3]: 455 | Mean : FITC-A [4]: 199 | Mean : FITC-A [5]: 1800 | Mean : FITC-A [6]: 121 | Mean : FITC-A [7]: 128 | EC50 [8]: 8 nM | Kd [9]: 0.187 nM
B1: Ab 36c (antibody, V domains shown)
VH: QPYLQQSGAELVRPGASVKMSCKASGYTFTSYNMHWVKQTPRQGLEWIGAIFPENGDTSYNQKFKGKATLTVDKSSSTAYMQLSSLTSEDSAVYFCARGGFDYWGQGTTLTVSS
VL: DIVMTQSHKFMSTSVGDRVSITCKASQDVSTNVAWYQQKPGQSPKLLIFSASYRYTGVPDRFAGSGSGTDFTFTISSVQAEDLAVYYCQQHYSSPYTFGGGTKLDIK

EC50 (read off the curve) [10]: 0.2 nM
B2: Ab 36 (antibody, V domains shown)
VH: B1 VH
VL: B1 VL

Kd [2]: 0.187 nM | koff [2]: 2.39e-05 s⁻¹ | kon [2]: 128000 M⁻¹ s⁻¹ | Kd [9]: 0.189 nM
B3: Ab hu36-2 (antibody, human IgG1, V domains shown)
VH: QVQLVQSGAEVKKPGSSVKVSCKASGYTFTSYNMHWVRQAPGQGLEWIGAIFPENGDTSYNQKFKGRATITADKSTSTAYMELSSLRSEDTAVYYCARGGFDYWGQGTTVTVSS
VL: DIQMTQSPSSLSASVGDRVTITCKASQDVSTNVAWYQQKPGKAPKLLIFSASYRYTGVPSRFSGSGSGTDFTFTISSLQPEDIATYYCQQHYSSPYTFGQGTKLEIK
